# Data taken from patent publication US20120134993A1 (ZymoGenetics, published 2012).
# T1: recombinant human FGF6 (human, UniProt P10767 83-208, limits assumed)
# T1 sequence (looked up): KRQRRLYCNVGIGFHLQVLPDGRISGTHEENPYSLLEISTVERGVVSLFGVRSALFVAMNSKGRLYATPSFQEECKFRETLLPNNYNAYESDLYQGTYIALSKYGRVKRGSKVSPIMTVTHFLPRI
# T2: recombinant human FGF4 (human, UniProt P08620 31-206, limits assumed)
# T2 sequence (looked up): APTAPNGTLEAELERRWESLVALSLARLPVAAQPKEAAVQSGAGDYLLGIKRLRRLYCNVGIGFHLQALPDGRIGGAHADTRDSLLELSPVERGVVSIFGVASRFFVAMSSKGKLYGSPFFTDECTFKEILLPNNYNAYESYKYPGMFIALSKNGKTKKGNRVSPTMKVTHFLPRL
# B1: recombinant human FGF-8b (ligand, UniProt P55075-3 23-215, looked up)
# chain: QVTVQSSPNFTQHVREQSLVTDQLSRRLIRTYQLYSRTSGKHVQVLANKRINAMAEDGDPFAKLIVETDTFGSRVRVRGAETGLYICMNKKGKLIAKSNGKGKDCVFTEIVLENNYTALQNAKYEGWYMAFTRKGRPRKGSKTRQHQREVHFMKRLPRGHHTTEQSLRFEFLNYPPFTRSLRGSQRTWAPEPR
# B2: recombinant human FGF-17 (ligand, UniProt O60258 23-216, looked up)
# chain: TQGENHPSPNFNQYVRDQGAMTDQLSRRQIREYQLYSRTSGKHVQVTGRRISATAEDGNKFAKLIVETDTFGSRVRIKGAESEKYICMNKRGKLIGKPSGKSKDCVFTEIVLENNYTAFQNARHEGWFMAFTRQGRPRQASRSRQNQREAHFIKRLYQGQLPFPNHAEKQKQFEFVGSAPTRRTKRTRRPQPLT
# Columns and labels:
# [1] = target: B2; assay: ELISA: FGF-17 coated at 100 nM, FGFR-Fc 100 to 0.10 nM in 1:2 steps with 10 ug/ml heparin, anti-human Fc-HRP, OD 490 nm
# Experimental: (§1) To determine the binding capability of FGFR-Fc to their respective ligands, an ELISA was run. Recombinant human FGF-8b or FGF-17 (R&D Systems) was plated at 100 nM on a Nunc Maxisorp 96-well plate for 1 h at room temperature with shaking. The plates were blocked with BLOTTO (Thermo Fisher Scientific, Rockford, Ill.) for 1 h at room temperature, then washed 5 times with ELISA C buffer (137 mM NaCl, 2.7 mM KCl, 7.2 mM Na₂HPO₄, 1.5 mM KH₂PO₄, 0.05% (v/w) polysorbate 20, pH 7.2). FGFR-Fcs were diluted to 100 nM with PBS/0.1×BLOTTO/10 ug/ml porcine heparin (Sigma, St. Louis, Mo.) and then 1:2 serial dilutions were made, ending at 0.10 nM. 100 μL of FGFR-Fcs were plated and incubated at 4° C. overnight. The following day, the plates were washed 5 times with ELISA C and then incubated with 2.5 μg/mL horseradish peroxidase-conjugated anti-human Fc antibody (Jackson ImmunoResearch Laboratories, West Grove, Pa.) for 1 h at room temperature with shaking. After 5 washes with ELISA C, 100 μL of OPD in citrate buffer (5 mg of o-phenylenediamine in 63 mM sodium citrate, 37 mM citric acid, pH 5.0, 0.03% H₂O₂) was added for detection. After 2-5 minutes, the reaction was stopped with 1 N H₂SO₄. The plates were read at 490 nm using SoftMaxPro software.
# [2] = target: T1, recombinant human FGF6; assay: SPR (Biacore T100), FGFR-Fc captured on protein A, FGF6 analyte with heparin, bivalent analyte model (KA1)
# Experimental: (§2) Materials and Methods: Binding kinetics and affinity studies were performed on a Biacore T100™ system (GE Healthcare, Piscataway, N.J.). Methods for the Biacore T100™ were programmed using Biacore T100™ Control Software, v 2.0. Since each of the FGF receptor molecules contained a human Fc domain, biotinylated protein-A (Thermo Fisher Scientific Inc, Rockford, Ill.) was used as a capture reagent for these studies. Biotinylated protein-A was diluted to concentration of 50 μg/mL in HBS-EP buffer (10 mM HEPES, 150 mM NaCl, 3 mM EDTA, 0.05% Surfactant P20; GE Healthcare, Piscataway, N.J.), and then captured to all four flow cells of a SA (streptavidin) sensor chip. A density of approximately 1100 RU was obtained for each flow cell. Each FGF receptor molecule was subsequently captured via protein-A onto a separate flow cell of the SA chip at an approximate density of 150-250 RU. The Biacore instrument measures the mass of protein bound to the sensor chip surface, and thus, capture of the receptor was verified for each cycle.
# (§3) For kinetic binding studies, serial 1:5 dilutions of FGF ligands were prepared from 200 nM-0.06 nM. These samples were injected over the surface and allowed to specifically bind to the FGF receptor captured on the sensor chip. Injections of each ligand concentration were performed with an association time of 7 minutes and dissociation time of 15 minutes. Kinetic binding studies were performed with a flow rate of 50 μL/min. All binding experiments were performed at 25° C. in HBS-P buffer (10 mM HEPES, 150 mM NaCl, 0.05% Surfactant P20, pH 7.4; GE Healthcare, Piscataway, N.J.), containing 50 μg/mL heparin (Calbiochem, La Jolla, Calif.).
# (§4) Between cycles, the flow cell was washed with 20 mM hydrochloric acid to regenerate the surface. This wash step removed both the captured FGF receptor and any bound FGF ligand from the protein-A surface, and allowed for the subsequent binding of the next test sample. Data was compiled using the Biacore T100™ Evaluation software (version 2.0). Data was processed by subtracting reference flow cell and blank injections. Baseline stability was assessed to ensure that the regeneration step provided a consistent binding surface throughout the sequence of injections. Duplicate injection curves were checked for reproducibility. Binding curves were globally fit to the bivalent analyte model.
# [3] = target: T1, recombinant human FGF6; assay: SPR (Biacore T100), FGFR-Fc captured on protein A, FGF6 analyte with heparin, bivalent analyte model (KD1)
# Experimental: as §2, §3, §4
# [4] = target: T1, recombinant human FGF6; assay: SPR (Biacore T100), FGFR-Fc captured on protein A, FGF6 analyte with heparin, bivalent analyte model (kd1)
# Experimental: as §2, §3, §4
# [5] = target: T1, recombinant human FGF6; assay: SPR (Biacore T100), FGFR-Fc captured on protein A, FGF6 analyte with heparin, bivalent analyte model (ka1)
# Experimental: as §2, §3, §4
# [6] = target: human FGF-9 (human, UniProt P31371 4-208); assay: cell-based or functional assay
# [7] = target: B1; assay: cell-based or functional assay
# [8] = target: B1; assay: direct binding ELISA, FGF-8b coated, FGFR-Fc titrated with heparin, anti-human Fc-HRP
# Experimental: as §1
# [9] = target: recombinant human FGF2 (human, UniProt P09038 143-288, limits assumed); assay: cell-based or functional assay
# Sequence of recombinant human FGF2 (P09038 143-288 limits assumed): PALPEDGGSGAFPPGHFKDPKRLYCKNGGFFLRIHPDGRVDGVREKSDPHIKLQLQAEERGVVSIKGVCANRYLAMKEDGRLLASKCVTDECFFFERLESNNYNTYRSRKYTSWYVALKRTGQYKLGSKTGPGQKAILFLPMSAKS
# [10] = target: T1, recombinant human FGF6; assay: cell-based or functional assay
# [11] = target: T2, recombinant human FGF4; assay: cell-based or functional assay
# [12] = target: recombinant human FGF1 (human, UniProt P05230 16-155); assay: cell-based or functional assay
# Sequence of recombinant human FGF1 (P05230 16-155 limits assumed): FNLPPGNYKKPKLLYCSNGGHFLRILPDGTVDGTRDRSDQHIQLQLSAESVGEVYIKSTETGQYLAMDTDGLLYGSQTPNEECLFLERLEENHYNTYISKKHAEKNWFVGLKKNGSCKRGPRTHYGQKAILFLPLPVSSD
# [13] = target: B2; assay: direct binding ELISA, FGF-17 coated, FGFR-Fc titrated with heparin, anti-human Fc-HRP
# Experimental: as §1
# [14] = target: T3, human FGFR4-Fc (R&D Systems) (human, UniProt P22455 22-369); assay: ELISA: FGF-8b coated at 100 nM, FGFR-Fc 100 to 0.10 nM in 1:2 steps with 10 ug/ml heparin, anti-human Fc-HRP, OD 490 nm
# T3 construct: Bought; also called FGFR4 (R&D systems); R&D FGFR4; not shown: Fc of the commercial fusion; not described
# Experimental: as §1
# [15] = target: T3, human FGFR4-Fc (R&D Systems); assay: ELISA: FGF-17 coated at 100 nM, FGFR-Fc 100 to 0.10 nM in 1:2 steps with 10 ug/ml heparin, anti-human Fc-HRP, OD 490 nm
# Experimental: as §1
binder,measurement,setting,value
"FGFR2alphaIIIc(145-377) Fc5, truncated FGFR2-Fc (A2559F) (Fc fusion, also called FGFR2A2559F; FGFR2 A2559F) SENSNNKRAPYWTNTEKMEKRLHAVPAANTVKFRCPAGGNPMPTMRWLKNGKEFKQEHRIGGYKVRNQHWSLIMESVVPSDKGNYTCVVENEYGSINHTYHLDVVERSPHRPILQAGLPANASTVVGGDVEFVCKVYSDAQPHIQWIKHVEKNGSKYGPDGLPYLKVLKAAGVNTTDKEIEVLYIRNVTFEDAGEYTCLAGNSIGISFHSAWLTVLPAPGREKEITASPDYLEEPKSSDKTHTCPPCPAPEAEGAPSVFLFPPKPKDTLMISRTPEVTCVVVDVSHEDPEVKFNWYVDGVEVHNAKTKPREEQYNSTYRVVSVLTVLHQDWLNGKEYKCKVSNKALPSSIEKTISKAKGQPREPQVYTLPPSRDELTKNQVSLTCLVKGFYPSDIAVEWESNGQPENNYKTTPPVLDSDGSFFLYSKLTVDKSRWQQGNVFSCSVMHEALHNHYTQKSLSLSPGK",binding result,[1],no binding (tested: 100 nM)
"FGFR2alphaIIIc(145-377)(P253R) Fc5, truncated FGFR2-Fc P253R (A2561F) (Fc fusion, also called FGFR2 A2561F; construct #1950) SENSNNKRAPYWTNTEKMEKRLHAVPAANTVKFRCPAGGNPMPTMRWLKNGKEFKQEHRIGGYKVRNQHWSLIMESVVPSDKGNYTCVVENEYGSINHTYHLDVVERSRHRPILQAGLPANASTVVGGDVEFVCKVYSDAQPHIQWIKHVEKNGSKYGPDGLPYLKVLKAAGVNTTDKEIEVLYIRNVTFEDAGEYTCLAGNSIGISFHSAWLTVLPAPGREKEITASPDYLEEPKSSDKTHTCPPCPAPEAEGAPSVFLFPPKPKDTLMISRTPEVTCVVVDVSHEDPEVKFNWYVDGVEVHNAKTKPREEQYNSTYRVVSVLTVLHQDWLNGKEYKCKVSNKALPSSIEKTISKAKGQPREPQVYTLPPSRDELTKNQVSLTCLVKGFYPSDIAVEWESNGQPENNYKTTPPVLDSDGSFFLYSKLTVDKSRWQQGNVFSCSVMHEALHNHYTQKSLSLSPGK",binding result,[1],no binding (tested: 100 nM)
"FGFR3IIIc(23-375)(S249W) Fc5, full-length FGFR3-Fc S249W (A2256F) (Fc fusion, also called FGFR3 A2256F; FGFR3A2256F) ESLGTEQRVVGRAAEVPGPEPGQQEQLVFGSGDAVELSCPPPGGGPMGPTVWVKDGTGLVPSERVLVGPQRLQVLNASHEDSGAYSCRQRLTQRVLCHFSVRVTDAPSSGDDEDGEDEAEDTGVDTGAPYWTRPERMDKKLLAVPAANTVRFRCPAAGNPTPSISWLKNGREFRGEHRIGGIKLRHQQWSLVMESVVPSDRGNYTCVVENKFGSIRQTYTLDVLERWPHRPILQAGLPANQTAVLGSDVEFHCKVYSDAQPHIQWLKHVEVNGSKVGPDGTPYVTVLKTAGANTTDKELEVLSLHNVTFEDAGEYTCLAGNSIGFSHHSAWLVVLPAEEELVEADEAGSVYAGEPKSSDKTHTCPPCPAPEAEGAPSVFLFPPKPKDTLMISRTPEVTCVVVDVSHEDPEVKFNWYVDGVEVHNAKTKPREEQYNSTYRVVSVLTVLHQDWLNGKEYKCKVSNKALPSSIEKTISKAKGQPREPQVYTLPPSRDELTKNQVSLTCLVKGFYPSDIAVEWESNGQPENNYKTTPPVLDSDGSFFLYSKLTVDKSRWQQGNVFSCSVMHEALHNHYTQKSLSLSPGK",Ka,[2],1e+09 M⁻¹
same,Kd,[3],800 pM
same,koff,[4],0.0005 s⁻¹
same,kon,[5],600000 M⁻¹ s⁻¹
same,"Proliferation IC50, FGF-9-stimulated HCO osteoblasts (3H-thymidine)",[6],840 pM
same,"Proliferation IC50, FGF8b-stimulated LNCap cells (3H-thymidine)",[7],10 pM
same,IC50,[8],37700 pM
same,"IC50, FGF-stimulated HUVEC proliferation (3H-thymidine)",[9],1000 pM
same,"IC50, FGF-stimulated HUVEC proliferation (3H-thymidine)",[10],950 pM
same,"IC50, FGF-stimulated HUVEC proliferation (3H-thymidine)",[11],740 pM
same,"IC50, FGF-stimulated HUVEC proliferation (3H-thymidine)",[12],820 pM
same,IC50,[13],8660 pM
B1,binding result,[14],binds
B2,binding result,[15],binds
